The values below come from US12679884 (University of Washington, dated 2026).

For data set [1], the target named is GAL4-RpBphP1. Kind of data set: cell-based or functional assay.
Data set [2] deals with the molecule itself. Kind of data set: analytical SEC of LDB-3 alone at different injected amounts, Superdex 200 Increase 10/300 GL.
Data set [3] concerns the molecule itself. Kind of data set: analytical SEC of DrBphP alone, Superdex 200 Increase 10/300 GL.
Data set [4] concerns the molecule itself. Kind of data set: analytical SEC of LDB-14 alone at different injected amounts, Superdex 200 Increase 10/300 GL.

Regarding NLS-PpsR2-p65, the light-induced luciferase expression over dark expression (mammalian two-hybrid, HEK293T, 775-nm light) in data set [1] came out at 2.95 fold.

B1: LDB-3-His (VHH, not shown: small tags and cut ends)
VHH: EVQLQASGGGFVQPGGSLRLSCAASGFTWDHYIMGWFRQAPGKEREFVSAISENGDAWNYYADSVKGRFTISRDNSKNTVYLQMNSLRAEDTATYYCAIGFDVPSGRSWQGSHFWMYWGQGTQVTVSS
notes: Synthetic nanobody, expressed in E. coli WK6; used in SEC, ITC and photoconversion assays; SEC: mixture of monomer and dimer
B1: in data set [2], the binding result is on record as “binds”.

B2: DrBphP-His, light form (photosensory module of Deinococcus radiodurans bacteriophytochrome, biliverdin-bound, after 654-nm illumination) (other)
chain: MSRDPLPFFPPLYLGGPEITTENCEREPIHIPGSIQPHGALLTADGHSGEVLQMSLNAATFLGQEPTVLRGQTLAALLPEQWPALQAALPPGCPDALQYRATLDWPAAGHLSLTVHRVGELLILEFEPTEAWDSTGPHALRNAMFALESAPNLRALAEVATQTVRELTGFDRVMLYKFAPDATGEVIAEARREGLHAFLGHRFPASDIPAQARALYTRHLLRLTADTRAAAVPLDPVLNPQTNAPTPLGGAVLRATSPMHMQYLRNMGVGSSLSVSVVVGGQLWGLIACHHQTPYVLPPDLRTTLEYLGRLLSLQVQVKEAADVAAFRQSLREHHARVALAAAHSLSPHDTLSDPALDLLGLMRAGGLILRFEGRWQTLGEVPPAPAVDALLAWLETQPGALVQTDALGQLWPAGADLAPSAAGLLAISVGEGWSECLVWLRPELRLEVAWGGATPDQAKDDLGPRHSFDTYLEEKRGYAEPWHPGEIEEAQDLRDTLTGAL
modifications: biliverdin chromophore bound
notes: Same polypeptide as m2; differs only in the photoconverted state (654-nm light); Used in SEC, ITC, BLI and photoconversion assays; also called DrBphP light form
As to B2, the binding result in data set [3] is given as “binds”.

B3: DrBphP-His, dark form (photosensory module of Deinococcus radiodurans bacteriophytochrome, biliverdin-bound, after 775-nm illumination) (other)
chain: MSRDPLPFFPPLYLGGPEITTENCEREPIHIPGSIQPHGALLTADGHSGEVLQMSLNAATFLGQEPTVLRGQTLAALLPEQWPALQAALPPGCPDALQYRATLDWPAAGHLSLTVHRVGELLILEFEPTEAWDSTGPHALRNAMFALESAPNLRALAEVATQTVRELTGFDRVMLYKFAPDATGEVIAEARREGLHAFLGHRFPASDIPAQARALYTRHLLRLTADTRAAAVPLDPVLNPQTNAPTPLGGAVLRATSPMHMQYLRNMGVGSSLSVSVVVGGQLWGLIACHHQTPYVLPPDLRTTLEYLGRLLSLQVQVKEAADVAAFRQSLREHHARVALAAAHSLSPHDTLSDPALDLLGLMRAGGLILRFEGRWQTLGEVPPAPAVDALLAWLETQPGALVQTDALGQLWPAGADLAPSAAGLLAISVGEGWSECLVWLRPELRLEVAWGGATPDQAKDDLGPRHSFDTYLEEKRGYAEPWHPGEIEEAQDLRDTLTGAL
modifications: biliverdin chromophore bound
notes: Same polypeptide as m1; differs only in the photoconverted state (775-nm light); also called DrBphP dark form
Take B3: in data set [3], the binding result is on record as “binds”.

B4: LDB-14-His (VHH, not shown: small tags and cut ends)
VHH: EVQLQASGGGFVQPGGSLRLSCAASGTTSRWESMGWFRQAPGKEREFVSAISWQNNSVPYYADSVKGRFTISRDNSKNTVYLQMNSLRAEDTATYYCAAQHNFLGHRYWGQGTQVTVSS
notes: Synthetic nanobody, expressed in E. coli WK6; used in SEC, ITC and photoconversion assays; SEC: mainly monomer
For B4, the binding result in data set [4] is “binds”.
